Bridge positions count the residues as written; N and C are the ends. Side chains are listed from the residue outwards. * marks the point of attachment. Biotin = O=C1N[C@H]2[C@H](CS[C@H]2CCCCC(=O)*)N1; PEG = not defined here
T1: chemokine (C-C motif) receptor 4 (CCR4) (human) (UniProt P51679)
T1 sequence (looked up): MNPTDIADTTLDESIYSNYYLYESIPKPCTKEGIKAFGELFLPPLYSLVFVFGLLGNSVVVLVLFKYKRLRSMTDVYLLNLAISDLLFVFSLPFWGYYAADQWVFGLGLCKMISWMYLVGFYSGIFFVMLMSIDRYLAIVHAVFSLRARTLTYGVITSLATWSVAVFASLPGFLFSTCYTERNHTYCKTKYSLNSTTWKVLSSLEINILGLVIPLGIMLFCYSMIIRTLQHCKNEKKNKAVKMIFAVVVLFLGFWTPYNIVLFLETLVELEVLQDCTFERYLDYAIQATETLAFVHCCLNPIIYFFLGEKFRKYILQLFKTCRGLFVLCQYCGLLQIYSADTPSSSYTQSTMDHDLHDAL

T2: chemokine (C-C motif) receptor 10 (CCR10) (human) (UniProt P46092)
T2 sequence (looked up): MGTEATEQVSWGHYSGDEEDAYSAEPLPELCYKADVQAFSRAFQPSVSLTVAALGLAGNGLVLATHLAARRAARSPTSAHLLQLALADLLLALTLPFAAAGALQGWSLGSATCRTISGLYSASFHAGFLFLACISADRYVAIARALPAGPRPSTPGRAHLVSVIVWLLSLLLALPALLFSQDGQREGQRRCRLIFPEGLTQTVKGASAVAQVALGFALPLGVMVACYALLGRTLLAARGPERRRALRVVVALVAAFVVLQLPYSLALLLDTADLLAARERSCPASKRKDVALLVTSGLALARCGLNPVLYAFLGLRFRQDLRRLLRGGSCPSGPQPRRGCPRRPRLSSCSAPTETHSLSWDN

B1: recombinant native MDC (ligand, UniProt O00626 25-93, looked up)
chain: GPYGANMEDSVCCRDYVRYRLPLRVVKHFYWTSDSCPRPGVVLLTFRDKEICADPRVPWVKMILNKLSQ
B2: biotinITAC (CXCL11): ITAC derivatised with Biotin at an additional C-terminal Lysine after a PEG spacer (ligand)
chain: FPMFKRGRCLCIGPGVKAVKVADIEKASIMYPSNNCDKIEVIITLKENKGQRCLNPKSKQARLIIKKVERKNFX
modifications: X74 = PEG-K(Biotin)
B3: recombinant native ITAC (ligand, UniProt O14625 22-94, looked up)
chain: FPMFKRGRCLCIGPGVKAVKVADIEKASIMYPSNNCDKIEVIITLKENKGQRCLNPKSKQARLIIKKVERKNF
B4: biotinCTAC (CCL27): CTAC derivatised at Lys(87) with PEG-Biotin (ligand)
chain: FLLPPSTACCTQLYRKPLSDKLLRKVIQVELQEADGDCHLQAFVLHLAQRSICIHPQNPSLSQWFEHQERKLHGTLPKLNFGMLRKK([PEG-Biotin])G-OH
modifications: disulfide 10-53, 9-38; reading uncertain
B5: recombinant native CTAC (ligand, UniProt Q9Y4X3 25-112, looked up)
chain: FLLPPSTACCTQLYRKPLSDKLLRKVIQVELQEADGDCHLQAFVLHLAQRSICIHPQNPSLSQWFEHQERKLHGTLPKLNFGMLRKMG

How the values were obtained:
Assay in all cases: cell-based or functional assay
[1] = target: T1, chemokine (C-C motif) receptor 4 (CCR4) (human)
[2] = target: chemokine (C-X-C motif) receptor 3 (CXCR3) (human) (UniProt P49682)
[3] = target: T2, chemokine (C-C motif) receptor 10 (CCR10) (human)

Chain of chemokine (C-X-C motif) receptor 3 (CXCR3) (human) (P49682 whole entry): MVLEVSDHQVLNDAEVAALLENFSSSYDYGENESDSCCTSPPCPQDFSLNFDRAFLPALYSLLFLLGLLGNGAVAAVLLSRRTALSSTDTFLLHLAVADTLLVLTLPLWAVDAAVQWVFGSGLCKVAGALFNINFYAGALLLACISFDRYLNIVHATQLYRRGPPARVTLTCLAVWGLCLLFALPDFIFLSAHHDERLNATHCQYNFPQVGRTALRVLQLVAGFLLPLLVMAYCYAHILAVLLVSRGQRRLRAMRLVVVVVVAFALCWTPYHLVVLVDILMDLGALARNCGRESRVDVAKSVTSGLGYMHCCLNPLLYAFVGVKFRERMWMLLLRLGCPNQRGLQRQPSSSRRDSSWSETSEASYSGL

Binder | EC50 (agonist activity, Aequorin assay) [2] | EC50 (agonist activity, Aequorin assay) [3] | other results
B1 | – | – | EC50 (agonist activity, Aequorin assay) [1]: 3.6 nM
B2 | 15.7 nM | – | –
B3 | 0.7 nM | – | –
B4 | – | 49.4 nM | –
B5 | – | 33.5 nM | –

— patent publication US20140175018A1
